Test results as given in patent publication US20250019439A1 (Adimab, published 2025).

Experiments:
ADI-22523 IgG = target: T1, ADI-22523 IgG; test: BLI; tip anti-ID IgG, solution ADI-22523 IgG
T1 construct: anti-CD3 IgG
Experimental: (§1) ForteBio affinity measurements were performed generally as previously described (Estep et al., MAbs. 2013 5(2):270-8). Briefly, ForteBio affinity measurements were performed by loading antibody IgG or Fabs on-line onto AHC sensors. Sensors were equilibrated off-line in assay buffer for 30 minutes and then monitored on-line for 60 seconds for baseline establishment. For avid binding measurement, sensors with loaded antibodies were exposed to IgG or Fab solutions for 3 minutes, afterwards they were transferred to assay buffer for 3 minutes for off-rate measurement. Kinetics data were fit using a 1:1 binding model in the data analysis software provided by ForteBio to obtain equilibrium dissociation constant (KD=koff/kₒₙ) values. In each column, tip-immobilized antibodies are listed first and solution antibodies second.

ADI-74968 = target: T2, ADI-74968; test: SPR Carterra avidity, yeast anti-ID
T2 construct: pH-dependent anti-CD3 antibody made in CHO cells
T2 sequence (VH, as listed by the source, chain 1 of 2): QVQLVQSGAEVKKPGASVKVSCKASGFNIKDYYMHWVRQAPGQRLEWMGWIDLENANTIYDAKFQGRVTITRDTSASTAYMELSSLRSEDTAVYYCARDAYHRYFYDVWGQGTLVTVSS
T2 sequence (VL, as listed by the source, chain 2 of 2): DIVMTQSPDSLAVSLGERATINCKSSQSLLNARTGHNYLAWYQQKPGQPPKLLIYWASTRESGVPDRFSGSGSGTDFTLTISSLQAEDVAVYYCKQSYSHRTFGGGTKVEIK
Experimental: (§2) Kinetic analysis was conducted at 25° C. in an HBSTE running buffer system (Carterra Cat #3630) using a Carterra LSA (Carterra USA, Salt Lake City, UT). The sample compartment was maintained at 20° C. for the duration of each experiment.
(§3) For antibody capture experiments, a goat anti-human Fc antibody (Jackson ImmunoResearch) was covalently coupled to an HC30M sensor chip surface via standard amine coupling (1:1 EDC:NHS) and then blocked with ethanolamine (1.0 M, pH 8.5). Covalent coupling steps were performed in 25 mM MES buffer (Carterra, Cat #3625) plus 0.05% Tween20. The anti-CD3 antibodies (100 nM in running buffer) were flowed over discrete regions of interest on the chip surface for 5 minutes. […] Dissociation of the anti-idiotype antibodies was monitored for 300s. Several blank buffer samples were injected over the entire chip surface at the start of each non-regenerative kinetic cycle. The preceding blank buffer injection was used for blank surface subtraction. At the end of each non-regenerative kinetic cycle, all surfaces were regenerated via two 30s injections of 10 mM glycine, pH 1.7.
(§4) For data processing and fitting, sensorgrams were double reference subtracted with a baseline drift correction of 4 RU. Sensorgrams were y-aligned and baseline corrected, filtered and cropped to include only the association and dissociation steps. Data was fitted to a 1:1 binding model using Carterra Kinetics Data Analysis software version 1.7.1.3055.

ADI-26915 = target: T3, ADI-26915; test: SPR Carterra avidity, yeast anti-ID
T3 construct: anti-CD3 antibody made in CHO cells, captured by anti-human Fc
T3 sequence (VH, as listed by the source, chain 1 of 2): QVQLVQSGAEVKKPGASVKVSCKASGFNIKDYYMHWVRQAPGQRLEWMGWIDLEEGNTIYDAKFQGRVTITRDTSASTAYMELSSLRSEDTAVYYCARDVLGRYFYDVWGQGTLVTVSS
T3 sequence (VL, as listed by the source, chain 2 of 2): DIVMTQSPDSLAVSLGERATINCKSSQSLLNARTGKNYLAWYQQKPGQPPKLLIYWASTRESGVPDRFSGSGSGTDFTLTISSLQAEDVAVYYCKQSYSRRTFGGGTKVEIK
Experimental: as §2, §3, §4

ADI-26909 = target: T4, ADI-26909; test: SPR Carterra avidity, yeast anti-ID
T4 construct: anti-CD3 antibody made in CHO cells, captured by anti-human Fc
T4 sequence (VH, as listed by the source limits assumed, chain 1 of 2): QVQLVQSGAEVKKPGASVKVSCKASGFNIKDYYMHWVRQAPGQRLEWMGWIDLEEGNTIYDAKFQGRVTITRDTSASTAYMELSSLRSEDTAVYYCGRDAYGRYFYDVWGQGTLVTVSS
Experimental: as §2, §3, §4

ADI-76357 [1] = target: T5, ADI-76357; test: SPR Carterra avidity, yeast anti-ID
T5 construct: anti-CD3 antibody made in CHO cells, captured by anti-human Fc
T5 sequence (VH, as listed by the source, chain 1 of 2): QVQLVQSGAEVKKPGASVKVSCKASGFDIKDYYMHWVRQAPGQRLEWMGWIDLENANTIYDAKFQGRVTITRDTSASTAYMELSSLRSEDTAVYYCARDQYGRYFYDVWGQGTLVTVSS
Experimental: as §2, §3, §4

ADI-48650 = target: T6, ADI-48650; test: SPR Carterra avidity, yeast anti-ID
T6 construct: pH-dependent anti-CD3 antibody made in CHO cells
Experimental: as §2, §3, §4

ADI-70326 = target: T7, ADI-70326; test: SPR Carterra avidity, yeast anti-ID
T7 construct: anti-CD3 antibody made in CHO cells, captured by anti-human Fc
T7 sequence (VH, as listed by the source limits assumed, chain 1 of 2): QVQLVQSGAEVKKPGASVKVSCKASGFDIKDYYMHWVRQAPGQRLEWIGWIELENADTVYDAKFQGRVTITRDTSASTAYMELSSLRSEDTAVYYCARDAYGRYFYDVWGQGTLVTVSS
T7 sequence (VL, as listed by the source limits assumed, chain 2 of 2): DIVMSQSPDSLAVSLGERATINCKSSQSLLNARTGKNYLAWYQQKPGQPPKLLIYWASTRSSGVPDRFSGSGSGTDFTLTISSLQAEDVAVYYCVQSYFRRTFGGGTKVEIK
Experimental: as §2, §3, §4

ADI-70330 = target: T8, ADI-70330; test: SPR Carterra avidity, yeast anti-ID
T8 construct: anti-CD3 antibody made in CHO cells, captured by anti-human Fc
T8 sequence (VH, as listed by the source limits assumed, chain 1 of 2): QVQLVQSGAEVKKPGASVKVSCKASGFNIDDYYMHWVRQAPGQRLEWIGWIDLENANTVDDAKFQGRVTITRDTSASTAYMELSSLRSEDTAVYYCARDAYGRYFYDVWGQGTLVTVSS
Experimental: as §2, §3, §4

ADI-76358 = target: T9, ADI-76358; test: SPR Carterra avidity, yeast anti-ID
T9 construct: anti-CD3 antibody made in CHO cells, captured by anti-human Fc
Experimental: as §2, §3, §4

ADI-74966 = target: T10, ADI-74966; test: SPR Carterra avidity, yeast anti-ID
T10 construct: pH-dependent anti-CD3 antibody made in CHO cells
Experimental: as §2, §3, §4

ADI-67450 = target: T11, ADI-67450; test: SPR Carterra avidity, yeast anti-ID
T11 construct: anti-CD3 antibody made in CHO cells, captured by anti-human Fc
Experimental: as §2, §3, §4

ADI-74967 [2] = target: T12, ADI-74967; test: SPR Carterra avidity, yeast anti-ID
T12 construct: pH-dependent anti-CD3 antibody made in CHO cells
Experimental: as §2, §3, §4

ADI-48576 = target: T13, ADI-48576; test: SPR Carterra avidity, yeast anti-ID
T13 construct: pH-dependent anti-CD3 antibody made in CHO cells
T13 sequence (VH, as listed by the source, chain 1 of 2): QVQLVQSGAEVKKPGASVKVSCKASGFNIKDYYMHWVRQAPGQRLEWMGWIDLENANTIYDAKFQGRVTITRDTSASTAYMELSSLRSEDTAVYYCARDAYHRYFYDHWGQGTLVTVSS
T13 sequence (VL, as listed by the source, chain 2 of 2): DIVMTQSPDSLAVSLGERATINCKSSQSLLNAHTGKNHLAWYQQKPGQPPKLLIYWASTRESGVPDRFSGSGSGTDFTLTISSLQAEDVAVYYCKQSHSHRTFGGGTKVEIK
Experimental: as §2, §3, §4

ADI-26916 IgG = target: T14, ADI-26916 IgG; test: SPR Carterra avidity, yeast anti-ID
T14 construct: anti-CD3 IgG
Experimental: as §2, §3, §4

ADI-67445 = target: T15, ADI-67445; test: SPR Carterra avidity, yeast anti-ID
T15 construct: anti-CD3 antibody made in CHO cells, captured by anti-human Fc
Experimental: as §2, §3, §4

ADI-67447 = target: T16, ADI-67447; test: SPR Carterra avidity, yeast anti-ID
T16 construct: anti-CD3 antibody made in CHO cells, captured by anti-human Fc
Experimental: as §2, §3, §4

ADI-76360 = target: T17, ADI-76360; test: SPR Carterra avidity, yeast anti-ID
T17 construct: anti-CD3 antibody made in CHO cells, captured by anti-human Fc
Experimental: as §2, §3, §4

CTL-62223 = target: T18, CTL-62223; test: SPR Carterra avidity, yeast anti-ID
T18 construct: also called mosunetuzumab
Experimental: as §2, §3, §4

ADI-70327 = target: T19, ADI-70327; test: SPR Carterra avidity, yeast anti-ID
T19 construct: anti-CD3 antibody made in CHO cells, captured by anti-human Fc
T19 sequence (VH, as listed by the source limits assumed, chain 1 of 2): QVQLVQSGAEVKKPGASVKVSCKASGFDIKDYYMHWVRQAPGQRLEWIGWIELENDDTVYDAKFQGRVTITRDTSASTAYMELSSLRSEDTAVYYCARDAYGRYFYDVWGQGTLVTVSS
Experimental: as §2, §3, §4

ADI-26924 = target: T20, ADI-26924; test: SPR Carterra avidity, yeast anti-ID
T20 construct: anti-CD3 antibody made in CHO cells, captured by anti-human Fc
T20 sequence (VH, as listed by the source, chain 1 of 2): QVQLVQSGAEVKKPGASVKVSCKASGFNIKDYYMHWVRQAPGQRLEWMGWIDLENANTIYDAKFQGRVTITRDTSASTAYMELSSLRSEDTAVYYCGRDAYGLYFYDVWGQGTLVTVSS
T20 sequence (VL, as listed by the source, chain 2 of 2): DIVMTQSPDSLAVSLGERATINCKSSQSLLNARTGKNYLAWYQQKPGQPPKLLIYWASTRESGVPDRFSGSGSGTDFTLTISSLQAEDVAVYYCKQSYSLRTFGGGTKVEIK
Experimental: as §2, §3, §4

ADI-26912 = target: T21, ADI-26912; test: SPR Carterra avidity, yeast anti-ID
T21 construct: anti-CD3 antibody made in CHO cells, captured by anti-human Fc
T21 sequence (VH, as listed by the source, chain 1 of 2): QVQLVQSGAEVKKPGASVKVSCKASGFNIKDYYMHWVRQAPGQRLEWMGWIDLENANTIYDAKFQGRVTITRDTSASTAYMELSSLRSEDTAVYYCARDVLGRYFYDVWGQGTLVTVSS
Experimental: as §2, §3, §4

ADI-76362 = target: T22, ADI-76362; test: SPR Carterra avidity, yeast anti-ID
T22 construct: anti-CD3 antibody made in CHO cells, captured by anti-human Fc
Experimental: as §2, §3, §4

ADI-74965 = target: T23, ADI-74965; test: SPR Carterra avidity, yeast anti-ID
T23 construct: pH-dependent anti-CD3 antibody made in CHO cells
Experimental: as §2, §3, §4

ADI-26913 IgG = target: T24, ADI-26913 IgG; test: SPR Carterra avidity, yeast anti-ID
T24 construct: anti-CD3 IgG
Experimental: as §2, §3, §4

ADI-48592 = target: T25, ADI-48592; test: SPR Carterra avidity, yeast anti-ID
T25 construct: pH-dependent anti-CD3 antibody made in CHO cells
T25 sequence (VH, as listed by the source, chain 1 of 2): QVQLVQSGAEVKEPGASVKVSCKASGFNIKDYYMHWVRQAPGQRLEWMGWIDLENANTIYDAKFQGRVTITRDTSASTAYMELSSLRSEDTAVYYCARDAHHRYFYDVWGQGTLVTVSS
T25 sequence (VL, as listed by the source, chain 2 of 2): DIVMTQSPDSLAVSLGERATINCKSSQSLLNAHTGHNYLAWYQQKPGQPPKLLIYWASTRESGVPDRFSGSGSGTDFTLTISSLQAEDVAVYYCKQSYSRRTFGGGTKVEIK
Experimental: as §2, §3, §4

ADI-48587 = target: T26, ADI-48587; test: SPR Carterra avidity, yeast anti-ID
T26 construct: pH-dependent anti-CD3 antibody made in CHO cells
Experimental: as §2, §3, §4

ADI-22523 Fab = target: T27, ADI-22523 Fab; test: BLI; tip anti-ID IgG, solution ADI-22523 Fab
T27 construct: anti-CD3 Fab by papain digestion of the IgG
Experimental: as §1

ADI-50024 = target: T28, ADI-50024; test: SPR Carterra avidity, yeast anti-ID, *koff limit
T28 construct: anti-CD3 antibody made in CHO cells, captured by anti-human Fc
T28 sequence (VH, as listed by the source limits assumed, chain 1 of 2): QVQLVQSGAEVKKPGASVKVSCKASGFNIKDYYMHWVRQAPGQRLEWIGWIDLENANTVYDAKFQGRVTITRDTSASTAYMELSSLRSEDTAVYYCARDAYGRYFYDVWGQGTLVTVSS
Experimental: as §2, §3, §4

ADI-76359 [3] = target: T29, ADI-76359; test: SPR Carterra avidity, yeast anti-ID, *koff limit
T29 construct: anti-CD3 antibody made in CHO cells, captured by anti-human Fc
T29 sequence (VH, as listed by the source, chain 1 of 2): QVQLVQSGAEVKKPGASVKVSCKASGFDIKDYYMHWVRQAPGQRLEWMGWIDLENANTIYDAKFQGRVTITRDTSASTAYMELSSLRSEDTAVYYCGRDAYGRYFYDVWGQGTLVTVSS
Experimental: as §2, §3, §4

ADI-26906 IgG = target: T30, ADI-26906 IgG; test: SPR Carterra avidity, yeast anti-ID, *koff limit
T30 construct: anti-CD3 IgG
T30 sequence (VH, as listed by the source limits assumed, chain 1 of 2): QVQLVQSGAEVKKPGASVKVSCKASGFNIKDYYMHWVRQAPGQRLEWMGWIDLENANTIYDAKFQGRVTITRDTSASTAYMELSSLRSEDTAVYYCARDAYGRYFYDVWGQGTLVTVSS
Experimental: as §2, §3, §4

ADI-76361 = target: T31, ADI-76361; test: SPR Carterra avidity, yeast anti-ID, *koff limit
T31 construct: anti-CD3 antibody made in CHO cells, captured by anti-human Fc
T31 sequence (VH, as listed by the source, chain 1 of 2): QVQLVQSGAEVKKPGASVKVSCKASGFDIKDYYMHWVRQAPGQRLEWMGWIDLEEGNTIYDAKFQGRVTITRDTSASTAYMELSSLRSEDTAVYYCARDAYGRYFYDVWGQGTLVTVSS
Experimental: as §2, §3, §4

ADI-26921 IgG [4] = target: T32, ADI-26921 IgG; test: SPR Carterra avidity, yeast anti-ID, *koff limit
T32 construct: anti-CD3 IgG
Experimental: as §2, §3, §4

ADI-26943 [5] = target: T33, ADI-26943; test: SPR Carterra avidity, yeast anti-ID, *koff limit
T33 construct: anti-CD3 antibody made in CHO cells, captured by anti-human Fc
T33 sequence (VH, as listed by the source, chain 1 of 2): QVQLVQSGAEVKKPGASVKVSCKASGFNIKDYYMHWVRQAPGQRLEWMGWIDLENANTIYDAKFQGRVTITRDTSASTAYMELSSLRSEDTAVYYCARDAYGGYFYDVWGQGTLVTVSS
T33 sequence (VL, as listed by the source, chain 2 of 2): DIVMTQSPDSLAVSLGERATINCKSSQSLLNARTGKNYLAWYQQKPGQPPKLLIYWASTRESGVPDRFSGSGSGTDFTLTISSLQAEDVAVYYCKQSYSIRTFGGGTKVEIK
Experimental: as §2, §3, §4

ADI-26920 IgG = target: T34, ADI-26920 IgG; test: SPR Carterra avidity, yeast anti-ID, *koff limit
T34 construct: anti-CD3 IgG
T34 sequence (VH, as listed by the source limits assumed, chain 1 of 2): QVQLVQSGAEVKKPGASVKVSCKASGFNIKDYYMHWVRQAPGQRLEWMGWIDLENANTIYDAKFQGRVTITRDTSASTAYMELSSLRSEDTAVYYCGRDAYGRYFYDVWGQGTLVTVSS
Experimental: as §2, §3, §4

ADI-26919 [6] = target: T35, ADI-26919; test: SPR Carterra avidity, yeast anti-ID, *koff limit
T35 construct: anti-CD3 antibody made in CHO cells, captured by anti-human Fc
Experimental: as §2, §3, §4

ADI-76359 [7] = target: T29, ADI-76359; test: SPR Carterra avidity, yeast anti-ID
Experimental: as §2, §3, §4

ADI-26921 IgG [8] = target: T32, ADI-26921 IgG; test: SPR Carterra avidity, yeast anti-ID
Experimental: as §2, §3, §4

ADI-26943 [9] = target: T33, ADI-26943; test: SPR Carterra avidity, yeast anti-ID
Experimental: as §2, §3, §4

ADI-26919 [10] = target: T35, ADI-26919; test: SPR Carterra avidity, yeast anti-ID
Experimental: as §2, §3, §4

ADI-76357 [11] = target: T5, ADI-76357; test: SPR Carterra avidity, yeast anti-ID, *koff limit
Experimental: as §2, §3, §4

ADI-74967 [12] = target: T12, ADI-74967; test: SPR Carterra avidity, yeast anti-ID, *koff limit
Experimental: as §2, §3, §4

Binder	Kd (ADI-22523 IgG) [nM]	Kd (ADI-74968) [nM]	Kd (ADI-26909) [nM]	Kd (ADI-70326) [nM]	Kd (ADI-70330) [nM]	Kd (ADI-76358) [nM]	Kd (ADI-74966) [nM]	Kd (ADI-67450) [nM]	Kd (ADI-48576) [nM]	Kd (ADI-26916 IgG) [nM]	Kd (ADI-67445) [nM]	Kd (ADI-67447) [nM]	Kd (ADI-76360) [nM]	Kd (CTL-62223) [nM]	Kd (ADI-26924) [nM]	binding result (ADI-26912)	Kd (ADI-76362) [nM]	Kd (ADI-26913 IgG) [nM]	Kd (ADI-48587) [nM]	Kd (ADI-22523 Fab) [nM]	also measured
ADI-34135 (antibody, V domains shown, anti-ID IgG) VH: QVQLVQSGAEVKKPGSSVKVSCKASGGTFSSYAISWVRQAPGQGLEWMGGIIPIFGTANYAQKFQGRVTITADESTSTAYMELSSLRSEDTAVYYCARGAPNYYGSGGYDDGWFDPWGQGTLVTVSS VL: EIVMTQSPGTLSLSPGERATLSCRASQSVSSSYLAWYQQKPGQAPRLLIYGASSRATGIPDRFSGSGSGTDFTLTISRLEPEDFAVYYCQQFGRYPTFGGGTKVEIK	0.54	0.83	0.1	4.1	0.47	1.1	0.35	0.63	31	0.14	0.34	0.26	0.15	1.2	0.14	binds	0.41	0.1	1.8	7.81	Kd (ADI-26915): 15 nM; Kd (ADI-76357 [1]): 0.097 nM; binding result (ADI-48650): binds; Kd (ADI-74967 [2]): 0.21 nM; binding result (ADI-70327): binds; binding result (ADI-74965): binds; Kd (ADI-48592): 19 nM; Kd (ADI-50024): 0.17 nM; Kd (ADI-76359 [3]): 0.053 nM; Kd (ADI-26906 IgG): 0.13 nM; Kd (ADI-76361): 0.044 nM; Kd (ADI-26921 IgG [4]): 0.073 nM; Kd (ADI-26943 [5]): 0.099 nM; Kd (ADI-26920 IgG): 0.11 nM; Kd (ADI-26919 [6]): 0.082 nM
ADI-34136 (antibody, V domains shown, anti-ID IgG) VH: QVQLVQSGAEVKKPGSSVKVSCKASGGTFSSYAISWVRQAPGQGLEWMGGIIPIFGTANYAQKFQGRVTITADESTSTAYMELSSLRSEDTAVYYCARGAPNYYGSGGYDDGWFDPWGQGTLVTVSS VL: not shown	0.75	1.2	0.3	2.1	0.42	0.73	0.64	0.56	29	0.35	0.34	0.18	0.35	1.2	0.17	binds	0.14	0.18	1.9	30.4	binding result (ADI-26915): binds; Kd (ADI-48650): 3.3 nM; Kd (ADI-76359 [7]): 0.12 nM; Kd (ADI-70327): 2 nM; Kd (ADI-26921 IgG [8]): 0.18 nM; Kd (ADI-26943 [9]): 0.25 nM; Kd (ADI-74965): 9.4 nM; binding result (ADI-48592): binds; Kd (ADI-26919 [10]): 0.16 nM; Kd (ADI-76357 [11]): 0.12 nM; Kd (ADI-50024): 0.42 nM; Kd (ADI-26906 IgG): 0.25 nM; Kd (ADI-74967 [12]): 0.15 nM; Kd (ADI-76361): 0.1 nM; Kd (ADI-26920 IgG): 0.14 nM
